Measurements as given in article PMC5443798, “Functional characterization of the meiosis-specific DNA double-strand break inducing factor SPO-11 from C. elegans”.

Columns and labels:
SPO-11 [1] = biological target: T1, SPO-11 (Caenorhabditis elegans, UniProt Q22236 1-425); test: EMSA; saturated at 4.8 uM SPO-11; EMSA: 42.5 mM Tris-HCl pH 7.5, 115 mM KCl, 1 mM DTT, 0.1 mg/ml BSA, 3% glycerol, 0.15 mM EDTA, 20 C, 30 min, 300 nM DNA (10 nM plasmid), agarose gel; SPR: same; conditions: protein: recombinant; tags: none (His6-SUMO removed by Ulp1); blunt
T1 sequence: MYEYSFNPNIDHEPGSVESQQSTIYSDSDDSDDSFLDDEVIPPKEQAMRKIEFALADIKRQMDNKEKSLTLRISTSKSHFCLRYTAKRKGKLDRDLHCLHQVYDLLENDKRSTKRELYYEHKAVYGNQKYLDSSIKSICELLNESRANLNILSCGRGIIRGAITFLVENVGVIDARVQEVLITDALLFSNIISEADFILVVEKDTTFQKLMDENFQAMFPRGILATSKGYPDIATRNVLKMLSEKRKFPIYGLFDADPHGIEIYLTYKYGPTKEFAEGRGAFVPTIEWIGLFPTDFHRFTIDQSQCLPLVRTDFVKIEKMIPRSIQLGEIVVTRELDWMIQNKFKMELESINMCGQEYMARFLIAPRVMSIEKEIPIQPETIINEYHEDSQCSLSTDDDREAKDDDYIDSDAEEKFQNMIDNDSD

SPO-11 [2] = biological target: T1, SPO-11; test: EMSA; 2.4 uM SPO-11, 300 nM DNA; EMSA: 42.5 mM Tris-HCl pH 7.5, 115 mM KCl, 1 mM DTT, 0.1 mg/ml BSA, 3% glycerol, 0.15 mM EDTA, 20 C, 30 min, 300 nM DNA (10 nM plasmid), agarose gel; SPR: same; conditions: protein: recombinant; tags: none (His6-SUMO removed by Ulp1); label: 3'-Cy5; blunt
SPO-11 [3] = biological target: T1, SPO-11; test: SPR; 20 C, steady-state affinity, no Mg2+; EMSA: 42.5 mM Tris-HCl pH 7.5, 115 mM KCl, 1 mM DTT, 0.1 mg/ml BSA, 3% glycerol, 0.15 mM EDTA, 20 C, 30 min, 300 nM DNA (10 nM plasmid), agarose gel; SPR: same; conditions: protein: recombinant; tags: none (His6-SUMO removed by Ulp1); label: 5'-biotin; blunt
SPO-11 G290D = biological target: T2, SPO-11 G290D (Caenorhabditis elegans, UniProt Q22236 1-425, G290D); test: EMSA; 20 C; EMSA: 42.5 mM Tris-HCl pH 7.5, 115 mM KCl, 1 mM DTT, 0.1 mg/ml BSA, 3% glycerol, 0.15 mM EDTA, 20 C, 30 min, 300 nM DNA (10 nM plasmid), agarose gel; SPR: same; conditions: protein: recombinant; tags: none (His6-SUMO removed by Ulp1); blunt
T2 sequence: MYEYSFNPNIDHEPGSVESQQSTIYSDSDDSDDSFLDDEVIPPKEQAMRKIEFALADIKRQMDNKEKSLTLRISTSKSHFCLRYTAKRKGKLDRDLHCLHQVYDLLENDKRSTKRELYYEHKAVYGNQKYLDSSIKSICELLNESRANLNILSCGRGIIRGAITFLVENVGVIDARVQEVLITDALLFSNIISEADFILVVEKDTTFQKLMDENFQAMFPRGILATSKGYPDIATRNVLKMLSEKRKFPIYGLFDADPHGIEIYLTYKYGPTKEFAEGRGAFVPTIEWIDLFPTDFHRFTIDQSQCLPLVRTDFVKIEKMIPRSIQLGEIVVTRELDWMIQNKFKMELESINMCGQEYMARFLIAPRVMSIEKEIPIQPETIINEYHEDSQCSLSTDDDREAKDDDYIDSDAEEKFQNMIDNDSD

SPO-11 [4] = biological target: T1, SPO-11; test: EMSA; 20 C, no Mg2+; EMSA: 42.5 mM Tris-HCl pH 7.5, 115 mM KCl, 1 mM DTT, 0.1 mg/ml BSA, 3% glycerol, 0.15 mM EDTA, 20 C, 30 min, 300 nM DNA (10 nM plasmid), agarose gel; SPR: same; conditions: protein: recombinant; tags: none (His6-SUMO removed by Ulp1); blunt
SPO-11 Y119F = biological target: T3, SPO-11 Y119F (Caenorhabditis elegans, UniProt Q22236 1-425, Y119F); test: EMSA; as proficient as WT; EMSA: 42.5 mM Tris-HCl pH 7.5, 115 mM KCl, 1 mM DTT, 0.1 mg/ml BSA, 3% glycerol, 0.15 mM EDTA, 20 C, 30 min, 300 nM DNA (10 nM plasmid), agarose gel; SPR: same; conditions: protein: recombinant; tags: none (His6-SUMO removed by Ulp1); blunt
T3 sequence: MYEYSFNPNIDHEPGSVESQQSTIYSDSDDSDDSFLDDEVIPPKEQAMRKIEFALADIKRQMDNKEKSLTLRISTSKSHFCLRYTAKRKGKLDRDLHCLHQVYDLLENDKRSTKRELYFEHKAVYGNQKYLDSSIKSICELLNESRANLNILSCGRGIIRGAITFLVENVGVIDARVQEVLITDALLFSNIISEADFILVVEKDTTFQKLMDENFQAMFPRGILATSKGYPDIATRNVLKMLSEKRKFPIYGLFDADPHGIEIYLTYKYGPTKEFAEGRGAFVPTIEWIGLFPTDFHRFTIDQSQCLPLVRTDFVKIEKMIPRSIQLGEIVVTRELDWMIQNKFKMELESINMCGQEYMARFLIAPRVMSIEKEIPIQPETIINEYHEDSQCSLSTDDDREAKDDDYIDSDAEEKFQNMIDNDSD

SPO-11 Y118F/Y119F = biological target: T4, SPO-11 Y118F/Y119F (Caenorhabditis elegans, UniProt Q22236 1-425, Y118F;Y119F); test: as above; conditions: protein: recombinant; tags: none (His6-SUMO removed by Ulp1); blunt
T4 sequence: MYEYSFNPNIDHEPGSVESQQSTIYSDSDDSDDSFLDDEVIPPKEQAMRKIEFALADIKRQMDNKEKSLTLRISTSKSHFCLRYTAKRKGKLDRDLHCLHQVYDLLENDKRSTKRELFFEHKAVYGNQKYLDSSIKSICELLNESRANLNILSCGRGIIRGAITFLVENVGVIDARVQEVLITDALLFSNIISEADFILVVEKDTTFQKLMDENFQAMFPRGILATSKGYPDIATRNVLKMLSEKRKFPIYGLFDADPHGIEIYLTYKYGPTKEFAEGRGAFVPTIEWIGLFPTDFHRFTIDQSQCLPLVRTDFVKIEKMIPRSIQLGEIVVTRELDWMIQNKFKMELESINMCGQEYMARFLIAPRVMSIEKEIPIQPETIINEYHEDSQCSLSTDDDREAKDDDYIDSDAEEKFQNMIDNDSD

SPO-11 E202A/D255A = biological target: T5, SPO-11 E202A/D255A (Caenorhabditis elegans, UniProt Q22236 1-425, E202A;D255A); test: EMSA; with Mg2+; as proficient as WT; EMSA: 42.5 mM Tris-HCl pH 7.5, 115 mM KCl, 1 mM DTT, 0.1 mg/ml BSA, 3% glycerol, 0.15 mM EDTA, 20 C, 30 min, 300 nM DNA (10 nM plasmid), agarose gel; SPR: same; conditions: protein: recombinant; tags: none (His6-SUMO removed by Ulp1); blunt
T5 sequence: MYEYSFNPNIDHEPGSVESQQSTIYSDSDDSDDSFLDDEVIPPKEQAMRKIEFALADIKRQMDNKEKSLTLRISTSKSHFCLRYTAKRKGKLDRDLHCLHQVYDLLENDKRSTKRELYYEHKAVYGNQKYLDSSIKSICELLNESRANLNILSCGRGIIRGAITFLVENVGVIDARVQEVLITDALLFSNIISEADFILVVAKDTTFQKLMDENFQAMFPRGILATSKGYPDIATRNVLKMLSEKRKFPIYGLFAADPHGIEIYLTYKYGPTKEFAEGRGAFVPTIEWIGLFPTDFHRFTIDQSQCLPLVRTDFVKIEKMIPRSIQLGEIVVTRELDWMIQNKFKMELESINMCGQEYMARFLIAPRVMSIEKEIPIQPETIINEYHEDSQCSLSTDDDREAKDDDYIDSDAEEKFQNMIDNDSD

SPO-11 E202A = biological target: T6, SPO-11 E202A (Caenorhabditis elegans, UniProt Q22236 1-425, E202A); test: as above; conditions: protein: recombinant; tags: none (His6-SUMO removed by Ulp1); blunt
T6 sequence: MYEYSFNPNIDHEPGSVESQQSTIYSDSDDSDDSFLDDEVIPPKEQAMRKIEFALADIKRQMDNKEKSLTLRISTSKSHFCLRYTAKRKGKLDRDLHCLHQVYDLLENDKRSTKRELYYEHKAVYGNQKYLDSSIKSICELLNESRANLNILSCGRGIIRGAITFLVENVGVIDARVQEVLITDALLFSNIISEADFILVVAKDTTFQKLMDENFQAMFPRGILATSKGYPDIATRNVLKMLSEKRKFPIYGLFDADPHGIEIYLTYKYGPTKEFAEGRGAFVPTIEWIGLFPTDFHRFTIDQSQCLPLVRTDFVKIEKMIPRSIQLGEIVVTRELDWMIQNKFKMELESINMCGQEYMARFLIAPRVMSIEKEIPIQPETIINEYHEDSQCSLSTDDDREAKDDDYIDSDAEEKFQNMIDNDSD

B1: 80 bp dsDNA (dsDNA)
DNA 1: TTATGTTCATTTTTTATATCCTTTACTTTATTTTCTCTGTTTATTCATTTACTTATTTTGTATTATCCTTATCTTATTTA
DNA 2: TAAATAAGATAAGGATAATACAAAATAAGTAAATGAATAAACAGAGAAAATAAAGTAAAGGATATAAAAAATGAACATAA
Question: Does B1 bind (SPO-11 [1])?
Answer: binds

B2: 80 bp dsDNA, Cy5 (dsDNA)
DNA 1: TTATGTTCATTTTTTATATCCTTTACTTTATTTTCTCTGTTTATTCATTTACTTATTTTGTATTATCCTTATCTTATTTA
DNA 2: TAAATAAGATAAGGATAATACAAAATAAGTAAATGAATAAACAGAGAAAATAAAGTAAAGGATATAAAAAATGAACATAA
modifications: 3'-Cy5 on strand 1
Question: Does B2 bind (SPO-11 [2])?
Answer: binds

B3: 100 bp dsDNA, 5'-biotin (dsDNA)
DNA 1: AATATGATAGATAATGATAGTGATGAGGGACGTGGATCTCTTCTTACCTGCGGAGACGTCGAGGAGAACCCAGGACCAGGGGTACCTATGGCCTCCTCCG
DNA 2: CGGAGGAGGCCATAGGTACCCCTGGTCCTGGGTTCTCCTCGACGTCTCCGCAGGTAAGAAGAGATCCACGTCCCTCATCACTATCATTATCTATCATATT
modifications: 5'-biotin (strand not stated)
Question: Which Kd (SPO-11 [3]) does the source give for B3 here?
Answer: ~470 nM

B4: 100 bp dsDNA (dsDNA)
DNA 1: AATATGATAGATAATGATAGTGATGAGGGACGTGGATCTCTTCTTACCTGCGGAGACGTCGAGGAGAACCCAGGACCAGGGGTACCTATGGCCTCCTCCG
DNA 2: CGGAGGAGGCCATAGGTACCCCTGGTCCTGGGTTCTCCTCGACGTCTCCGCAGGTAAGAAGAGATCCACGTCCCTCATCACTATCATTATCTATCATATT
Question: Which results are given for B4?
Answer: binding result (SPO-11 G290D): no binding; binding result (SPO-11 [4]): binds; binding result (SPO-11 Y119F): binds; binding result (SPO-11 Y118F/Y119F): binds; binding result (SPO-11 E202A/D255A): binds; binding result (SPO-11 E202A): binds
